From US20250262210A1 (TRUSTEES OF COLUMBIA UNIVERSITY IN THE CITY OF NEW YORK, published 2025)

Biological target: T1, AP4E1 (human, UniProt Q9UPM8 1-1137, limits assumed)
T1 sequence (looked up): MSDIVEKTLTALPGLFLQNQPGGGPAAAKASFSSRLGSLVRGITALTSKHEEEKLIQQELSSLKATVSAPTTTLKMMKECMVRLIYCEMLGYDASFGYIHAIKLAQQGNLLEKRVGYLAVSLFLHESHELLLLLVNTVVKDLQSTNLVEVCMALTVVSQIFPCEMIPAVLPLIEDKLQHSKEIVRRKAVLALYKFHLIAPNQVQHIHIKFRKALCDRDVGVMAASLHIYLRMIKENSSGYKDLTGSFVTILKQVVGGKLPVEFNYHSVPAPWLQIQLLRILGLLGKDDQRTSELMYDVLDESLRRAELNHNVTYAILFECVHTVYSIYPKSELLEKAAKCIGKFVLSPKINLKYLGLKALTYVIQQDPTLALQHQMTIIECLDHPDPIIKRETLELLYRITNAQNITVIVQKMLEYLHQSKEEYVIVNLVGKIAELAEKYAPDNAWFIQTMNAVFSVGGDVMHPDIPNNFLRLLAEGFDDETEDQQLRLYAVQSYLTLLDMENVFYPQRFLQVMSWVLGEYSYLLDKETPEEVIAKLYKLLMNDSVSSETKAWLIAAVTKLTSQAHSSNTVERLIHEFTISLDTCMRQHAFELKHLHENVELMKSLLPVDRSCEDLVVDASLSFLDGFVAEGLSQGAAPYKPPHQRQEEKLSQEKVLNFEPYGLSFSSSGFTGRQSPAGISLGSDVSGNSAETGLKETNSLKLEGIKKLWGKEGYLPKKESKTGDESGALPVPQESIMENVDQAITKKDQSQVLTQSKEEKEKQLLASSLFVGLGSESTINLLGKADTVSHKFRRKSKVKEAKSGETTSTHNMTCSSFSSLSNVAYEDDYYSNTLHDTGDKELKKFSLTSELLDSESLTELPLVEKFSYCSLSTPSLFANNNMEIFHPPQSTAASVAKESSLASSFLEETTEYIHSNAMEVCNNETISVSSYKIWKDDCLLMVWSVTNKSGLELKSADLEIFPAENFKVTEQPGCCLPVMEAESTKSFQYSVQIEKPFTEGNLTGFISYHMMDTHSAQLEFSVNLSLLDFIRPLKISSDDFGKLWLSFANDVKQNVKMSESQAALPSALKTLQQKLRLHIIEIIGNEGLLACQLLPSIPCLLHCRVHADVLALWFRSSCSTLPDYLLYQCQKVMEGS
Test: IP/MS, LZTR1 wild type-FLAG, U87
Method in brief: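 Gel slices were reduced with 5 mM DTT, alkylated with 11 mM IAA and digested overnight at 37° C. with trypsin. Peptides were analysed on an Orbitrap Fusion Tribrid by LC-MS/MS.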

B1: LZTR1-FLAG (other, human, UniProt Q8N653 1-840, looked up)
chain: MAGPGSTGGQIGAAALAGGARSKVAPSVDFDHSCSDSVEYLTLNFGPFETVHRWRRLPPCDEFVGARRSKHTVVAYKDAIYVFGGDNGKTMLNDLLRFDVKDCSWCRAFTTGTPPAPRYHHSAVVYGSSMFVFGGYTGDIYSNSNLKNKNDLFEYKFATGQWTEWKIEGRLPVARSAHGATVYSDKLWIFAGYDGNARLNDMWTIGLQDRELTCWEEVAQSGEIPPSCCNFPVAVCRDKMFVFSGQSGAKITNNLFQFEFKDKTWTRIPTEHLLRGSPPPPQRRYGHTMVAFDRHLYVFGGAADNTLPNELHCYDVDFQTWEVVQPSSDSEVGGAEVPERACASEEVPTLTYEERVGFKKSRDVFGLDFGTTSAKQPTQPASELPSGRLFHAAAVISDAMYIFGGTVDNNIRSGEMYRFQFSCYPKCTLHEDYGRLWESRQFCDVEFVLGEKEECVQGHVAIVTARSRWLRRKITQARERLAQKLEQEAAPVPREAPGVAAGGARPPLLHVAIREAEARPFEVLMQFLYTDKIKYPRKGHVEDVLLIMDVYKLALSFQLCRLEQLCRQYIEASVDLQNVLVVCESAARLQLSQLKEHCLNFVVKESHFNQVIMMKEFERLSSPLIVEIVRRKQQPPPRTPLDQPVDIGTSLIQDMKAYLEGAGAEFCDITLLLDGHPRPAHKAILAARSSYFEAMFRSFMPEDGQVNISIGEMVPSRQAFESMLRYIYYGEVNMPPEDSLYLFAAPYYYGFYNNRLQAYCKQNLEMNVTVQNVLQILEAADKTQALDMKRHCLHIIVHQFTKVSKLPTLRSLSQQLLLDIIDSLASHISDKQCAELGADI
notes: Expressed in HEK 293T, HeLa or U87 cells; used as cell lysate; also called LZTR1 wild type-FLAG; LZTR1 WT; not shown: FLAG tag at the C-terminus
binding result: binds
